For test [1], the target named is cation-independent mannose-6-phosphate/IGF-II receptor on GM4668 human skin fibroblasts (human) (UniProt P11717). As to the kind of experiment: cell-based or functional assay.
Test [2] has the same target.
Test [3] has the same target. This is another data set of the same source.

The source of these data is patent US20190224282A1.

Where only a bound is given, the exact number is not on record here.

Sequence of UniProt P11717 (P11717 41-2491): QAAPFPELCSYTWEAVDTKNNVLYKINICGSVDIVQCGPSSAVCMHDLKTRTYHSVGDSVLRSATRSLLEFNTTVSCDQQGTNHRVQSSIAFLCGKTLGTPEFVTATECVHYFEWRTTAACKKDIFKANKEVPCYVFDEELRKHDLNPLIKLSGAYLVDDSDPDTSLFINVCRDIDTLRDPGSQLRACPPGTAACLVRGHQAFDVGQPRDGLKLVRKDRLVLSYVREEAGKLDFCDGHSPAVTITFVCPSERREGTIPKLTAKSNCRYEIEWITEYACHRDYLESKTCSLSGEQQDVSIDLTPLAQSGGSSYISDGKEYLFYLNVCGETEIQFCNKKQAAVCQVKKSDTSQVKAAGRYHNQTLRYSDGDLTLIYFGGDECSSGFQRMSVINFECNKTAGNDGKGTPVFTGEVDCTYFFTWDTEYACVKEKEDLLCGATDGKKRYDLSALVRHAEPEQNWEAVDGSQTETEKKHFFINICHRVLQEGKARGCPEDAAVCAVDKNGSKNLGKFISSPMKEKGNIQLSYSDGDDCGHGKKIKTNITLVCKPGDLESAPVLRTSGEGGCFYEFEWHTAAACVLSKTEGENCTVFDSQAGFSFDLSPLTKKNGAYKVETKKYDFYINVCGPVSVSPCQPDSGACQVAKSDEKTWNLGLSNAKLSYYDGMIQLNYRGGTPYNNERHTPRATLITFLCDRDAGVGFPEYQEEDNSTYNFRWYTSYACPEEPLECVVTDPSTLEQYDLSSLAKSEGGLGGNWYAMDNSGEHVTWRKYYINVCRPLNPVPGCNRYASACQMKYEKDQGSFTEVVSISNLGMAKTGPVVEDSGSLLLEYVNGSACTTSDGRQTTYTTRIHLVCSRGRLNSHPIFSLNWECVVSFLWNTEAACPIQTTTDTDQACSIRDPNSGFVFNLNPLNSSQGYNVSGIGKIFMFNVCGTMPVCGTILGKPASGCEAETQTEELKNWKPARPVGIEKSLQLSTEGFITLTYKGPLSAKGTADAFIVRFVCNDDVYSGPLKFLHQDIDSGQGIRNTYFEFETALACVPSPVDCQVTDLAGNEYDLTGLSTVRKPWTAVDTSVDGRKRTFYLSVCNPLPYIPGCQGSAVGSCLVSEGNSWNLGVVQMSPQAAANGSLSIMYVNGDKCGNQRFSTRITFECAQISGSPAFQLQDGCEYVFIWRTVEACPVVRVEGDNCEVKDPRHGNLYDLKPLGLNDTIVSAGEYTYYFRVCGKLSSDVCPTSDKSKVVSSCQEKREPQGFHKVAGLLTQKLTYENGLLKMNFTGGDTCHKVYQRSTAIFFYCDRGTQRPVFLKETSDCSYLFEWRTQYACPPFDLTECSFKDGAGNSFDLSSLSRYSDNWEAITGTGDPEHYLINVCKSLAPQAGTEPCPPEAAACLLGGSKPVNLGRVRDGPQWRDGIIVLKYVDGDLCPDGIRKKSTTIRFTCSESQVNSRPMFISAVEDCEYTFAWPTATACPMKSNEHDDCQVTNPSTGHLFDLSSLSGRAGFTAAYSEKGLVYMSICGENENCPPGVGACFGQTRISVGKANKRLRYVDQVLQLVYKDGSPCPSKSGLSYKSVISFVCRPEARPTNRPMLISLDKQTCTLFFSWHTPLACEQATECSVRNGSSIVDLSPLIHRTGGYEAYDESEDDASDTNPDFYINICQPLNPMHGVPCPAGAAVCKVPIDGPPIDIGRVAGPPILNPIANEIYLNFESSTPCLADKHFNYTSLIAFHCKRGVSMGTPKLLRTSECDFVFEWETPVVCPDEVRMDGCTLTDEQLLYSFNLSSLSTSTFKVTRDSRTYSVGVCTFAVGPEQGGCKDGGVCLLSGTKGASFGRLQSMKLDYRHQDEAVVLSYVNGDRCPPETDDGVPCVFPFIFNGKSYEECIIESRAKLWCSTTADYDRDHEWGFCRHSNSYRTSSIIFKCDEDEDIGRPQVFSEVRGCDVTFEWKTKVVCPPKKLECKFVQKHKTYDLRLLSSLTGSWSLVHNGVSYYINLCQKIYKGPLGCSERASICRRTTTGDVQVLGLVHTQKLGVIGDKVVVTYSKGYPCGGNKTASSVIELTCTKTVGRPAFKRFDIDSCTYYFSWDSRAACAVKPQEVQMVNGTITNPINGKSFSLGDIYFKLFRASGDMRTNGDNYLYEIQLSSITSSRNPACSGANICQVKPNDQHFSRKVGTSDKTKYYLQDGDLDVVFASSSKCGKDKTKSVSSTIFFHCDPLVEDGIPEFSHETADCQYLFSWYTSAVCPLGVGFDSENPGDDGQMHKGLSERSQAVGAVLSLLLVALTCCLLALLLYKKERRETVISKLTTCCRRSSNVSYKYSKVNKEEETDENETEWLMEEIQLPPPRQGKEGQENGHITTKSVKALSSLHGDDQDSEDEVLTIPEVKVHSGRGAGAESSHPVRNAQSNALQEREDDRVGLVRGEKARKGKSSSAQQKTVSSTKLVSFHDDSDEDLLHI

In test [1], “CHO GUSΔC18-GILTΔ1-7 (from UniProt P08236 23-633)” showed a % IGF-II +M6P inhibition of uptake of 100%; a +IGF-II (units/mg): uptake with IGF-II, 22.5 hours of 473 units/mg; a +IGF-II (units/mg): uptake with excess IGF-II, 18 hours of 258 units/mg; a +IGF-II +M6P (units/mg): uptake with both inhibitors, 22.5 hours of 0 units/mg. Besides, in test [1], the +IGF-II Uptake (units/mg), 21 hours came to 1010 units/mg; the +M6P (units/mg): uptake with 8 mM M6P, 22.5 hours came to 639 units/mg; the +M6P (units/mg): uptake with excess M6P, 18 hours is 412 units/mg; the Uptake (units/mg), GM4668 fibroblasts, 18 hours worked out at 704 units/mg. In test [1], this substance yielded an Uptake (units/mg), MPS VII fibroblasts, 21 hours of 4080 units/mg and an Uptake (units/mg), fibroblasts, 22.5 hours of 1580 units/mg.
With “CHO GUS (from UniProt P08236 23-651) (enzyme)”, in test [1], the +IGF-II (units/mg): uptake with excess IGF-II, 18 hours was 336 units/mg; the +M6P (units/mg): uptake with excess M6P, 18 hours was 1 units/mg; the Uptake (units/mg), GM4668 fibroblasts, 18 hours stood at 352 units/mg.
In test [1], “HEK GUS-GILTF19S (from UniProt P08236 23-651)” came in with a % IGF-II +M6P inhibition of uptake of 99.1%; a +IGF-II (units/mg): uptake with IGF-II, 22.5 hours of 217 units/mg; a +IGF-II +M6P (units/mg): uptake with both inhibitors, 22.5 hours of 15 units/mg; a +IGF-II Uptake (units/mg), 21 hours of 439 units/mg. In test [1], this substance returned a +M6P (units/mg): uptake with 8 mM M6P, 22.5 hours of 952 units/mg; an Uptake (units/mg), MPS VII fibroblasts, 21 hours of 4730 units/mg; an Uptake (units/mg), fibroblasts, 22.5 hours of 1590 units/mg.
For “HEK GUSΔC18-GILTΔ1-7 (from UniProt P08236 23-633)”, in test [1], the +IGF-II Uptake (units/mg), 21 hours was 1210 units/mg and the Uptake (units/mg), MPS VII fibroblasts, 21 hours was found to be 5190 units/mg.
In test [1], “GUS-IGF-II fusion protein (GUS-GILT), Leishmania-expressed” yielded a cell-associated GILT-GUS in GM4668 fibroblasts, no IGF-II (units/mg lysate) of over 24; a cell-associated GILT-GUS in GM4668 fibroblasts, with excess IGF-II of 5.4 U; a cell-associated GUS activity in GM4668 fibroblasts, fold over unmodified GUS of 10 fold. In test [2], the cell-associated GUS activity in GM4668 fibroblast lysate after uptake of about 350-600 units of ConA-purified enzyme in the presence of excess IGF-II as competitor (Units/mg protein) came to 7.93 and the cell-associated GUS activity in GM4668 fibroblast lysate after uptake of about 350-600 units of ConA-purified enzyme, no competitor (Units/mg protein) stood at 55.1. In addition, the cell-associated GUS activity in GM4668 fibroblast lysate after about 18 h uptake, 150 U enzyme per well, no competitor in test [3] amounted to 24.1 U/mg lysate.
“HEK GUS-GILTY27L (from UniProt P08236 23-651)” gave an Uptake (units/mg), MPS VII fibroblasts, 21 hours in test [1] of 1510 units/mg.
On to “HEK GUS-GILT (from UniProt P08236 23-651)”, for which, in test [1], the Uptake (units/mg), MPS VII fibroblasts, 21 hours was determined as 1430 units/mg.
GUS-GILTΔ1-7 (from UniProt P08236): in test [2], the cell-associated GUS activity in GM4668 fibroblast lysate after uptake of about 350-600 units of ConA-purified enzyme in the presence of excess IGF-II as competitor (Units/mg protein) is 13.5 and the cell-associated GUS activity in GM4668 fibroblast lysate after uptake of about 350-600 units of ConA-purified enzyme, no competitor (Units/mg protein) amounted to 245.
In test [1], “CHO GUS-GILTΔ1-7 (from UniProt P08236 23-651)” registered a +IGF-II (units/mg): uptake with excess IGF-II, 18 hours of 84 units/mg; a +M6P (units/mg): uptake with excess M6P, 18 hours of 223 units/mg; an Uptake (units/mg), GM4668 fibroblasts, 18 hours of 310 units/mg.
As to GUS (enzyme), the cell-associated GUS activity in GM4668 fibroblast lysate after uptake of about 350-600 units of ConA-purified enzyme (untagged comparison) (Units/mg protein) in test [2] was found to be 3.38. This substance also displayed a cell-associated GUS activity in GM4668 fibroblast lysate after about 18 h uptake, 150 U enzyme per well (untagged comparison) in test [3] of 4.5 U/mg lysate.
Turning to “HEK GUS-GILTF19SE12K (from UniProt P08236 23-651)”, in test [1], the % IGF-II +M6P inhibition of uptake was determined as 100%; the +IGF-II (units/mg): uptake with IGF-II, 22.5 hours was found to be 22 units/mg; the +IGF-II +M6P (units/mg): uptake with both inhibitors, 22.5 hours was found to be 0 units/mg; the +IGF-II Uptake (units/mg), 21 hours was 388 units/mg. In test [1], this substance had a +M6P (units/mg): uptake with 8 mM M6P, 22.5 hours of 846 units/mg; an Uptake (units/mg), MPS VII fibroblasts, 21 hours of 4230 units/mg; an Uptake (units/mg), fibroblasts, 22.5 hours of 1230 units/mg.
In turn, “GILT-GUS with Δ1-7 and Y27L mutations in the IGF-II portion, Leishmania-expressed (from UniProt P08236 23-651)” registered a cell-associated GUS activity in GM4668 fibroblasts, fold over unmodified GUS in test [1] of 5 fold.
